Reference: the Human Domainome abundance scans (Beltran et al. 2025)
± gives the uncertainty stated by the source.

B1: Transcription intermediary factor 1-beta, residues 620 to 671; numbered along this chain, Q13263 (parent)
chain: TLDDSATICRVCQKPGDLVMCNQCEFCFHLDCHLPALQDVPGEEWSCSLCHV

Variants of: B1
Assay: abundance fitness (aPCA) (normalised: wild type 0, dead -1); higher = more abundant; growth selection in yeast, the domain comes from the species named
Conditions: Homo sapiens

Row | Variant | abundance fitness
1 | N22A | -0.232 ± 0.11
2 | N22C | -0.092 ± 0.22
3 | N22E | 0.094 ± 0.15
4 | N22F | -0.281 ± 0.23
5 | N22G | -0.27 ± 0.098
6 | N22H | -0.449 ± 0.23
7 | N22I | -0.316 ± 0.21
8 | N22K | 0.05 ± 0.17
9 | N22L | -0.561 ± 0.11
10 | N22M | -0.337 ± 0.16
11 | N22P | -0.382 ± 0.19
12 | N22Q | -0.116 ± 0.18
13 | N22R | -0.11 ± 0.12
14 | N22S | -0.066 ± 0.12
15 | N22T | -0.182 ± 0.13
16 | Q23A | -0.395 ± 0.12
17 | Q23C | -0.043 ± 0.13
18 | Q23D | -0.234 ± 0.4
19 | Q23F | -0.292 ± 0.26
20 | Q23H | -0.486 ± 0.29
21 | Q23I | -0.373 ± 0.21
22 | Q23K | -0.113 ± 0.21
23 | Q23L | -0.199 ± 0.1
24 | Q23M | -0.371 ± 0.16

Row | Variant | abundance fitness
25 | Q23N | -0.014 ± 0.21
26 | Q23P | -0.93 ± 0.21
27 | Q23R | -0.172 ± 0.12
28 | Q23S | -0.089 ± 0.11
29 | Q23T | -0.066 ± 0.17
30 | Q23V | -0.214 ± 0.1
31 | Q23W | -0.383 ± 0.13
32 | Q23Y | -0.336 ± 0.21
33 | C24A | -0.666 ± 0.14
34 | C24D | -0.769 ± 0.27
35 | C24F | -0.965 ± 0.22
36 | C24G | -0.541 ± 0.12
37 | C24H | -1.01 ± 0.24
38 | C24I | -1.07 ± 0.36
39 | C24K | -0.894 ± 0.27
40 | C24M | -0.918 ± 0.25
41 | C24N | -1.19 ± 0.4
42 | C24P | -0.928 ± 0.28
43 | C24R | -0.685 ± 0.099
44 | C24S | -1 ± 0.17
45 | C24T | -0.842 ± 0.18
46 | C24V | -1.08 ± 0.17
47 | C24W | -1.04 ± 0.19
48 | E25A | -0.227 ± 0.12

Row | Variant | abundance fitness
49 | E25C | -0.052 ± 0.16
50 | E25D | -0.3 ± 0.26
51 | E25F | -0.113 ± 0.18
52 | E25G | -0.27 ± 0.1
53 | E25H | -0.578 ± 0.4
54 | E25I | -0.298 ± 0.21
55 | E25K | -0.228 ± 0.19
56 | E25L | -0.134 ± 0.1
57 | E25M | -0.286 ± 0.28
58 | E25N | -0.822 ± 0.39
59 | E25P | -0.66 ± 0.24
60 | E25Q | -0.077 ± 0.19
61 | E25R | -0.136 ± 0.12
62 | E25S | 0.059 ± 0.11
63 | E25T | -0.024 ± 0.12
64 | E25V | -0.493 ± 0.11
65 | E25W | -0.322 ± 0.13
66 | E25Y | -0.061 ± 0.19
67 | F26A | -0.063 ± 0.11
68 | F26C | -0.029 ± 0.24
69 | F26D | -0.034 ± 0.22
70 | F26E | 0.04 ± 0.15
71 | F26G | 0.121 ± 0.1
72 | F26H | -0.374 ± 0.21

Row | Variant | abundance fitness
73 | F26I | -0.812 ± 0.34
74 | F26K | 0.155 ± 0.13
75 | F26L | -0.328 ± 0.12
76 | F26M | -0.108 ± 0.2
77 | F26N | -0.122 ± 0.21
78 | F26P | -0.993 ± 0.24
79 | F26Q | 0.082 ± 0.16
80 | F26R | -0.045 ± 0.097
81 | F26S | -0.192 ± 0.1
82 | F26T | -0.563 ± 0.17
83 | F26V | -0.33 ± 0.11
84 | F26W | -0.399 ± 0.13
85 | C27Y | 0.002 ± 0.16
86 | F28A | -0.098 ± 0.13
87 | F28C | -0.211 ± 0.15
88 | F28D | -0.554 ± 0.34
89 | F28E | -0.321 ± 0.14
90 | F28G | -0.593 ± 0.12
91 | F28H | -0.346 ± 0.35
92 | F28I | -0.016 ± 0.16
93 | F28K | -0.427 ± 0.23
94 | F28L | -0.393 ± 0.11
95 | F28M | -0.318 ± 0.14
96 | F28N | -0.724 ± 0.28

Row | Variant | abundance fitness
97 | F28Q | -0.549 ± 0.31
98 | F28R | -0.284 ± 0.093
99 | F28S | -0.424 ± 0.12
100 | F28T | -0.278 ± 0.12
101 | F28V | -0.227 ± 0.092
102 | F28W | 0.093 ± 0.11
103 | F28Y | -0.09 ± 0.17
104 | H29A | -1.01 ± 0.21
105 | H29C | -0.67 ± 0.2
106 | H29D | -0.883 ± 0.29
107 | H29E | -0.919 ± 0.23
108 | H29F | -0.864 ± 0.27
109 | H29G | -0.899 ± 0.18
110 | H29I | -1.12 ± 0.27
111 | H29K | -0.807 ± 0.28
112 | H29L | -1.01 ± 0.15
113 | H29M | -0.967 ± 0.19
114 | H29N | -0.504 ± 0.19
115 | H29P | -1.34 ± 0.34
116 | H29Q | -0.957 ± 0.25
117 | H29R | -0.749 ± 0.13
118 | H29T | -0.637 ± 0.17
119 | H29V | -0.952 ± 0.15
120 | H29W | -0.908 ± 0.28

Row | Variant | abundance fitness
121 | H29Y | -0.921 ± 0.26
122 | L30A | -0.116 ± 0.16
123 | L30C | -0.135 ± 0.16
124 | L30D | -0.755 ± 0.2
125 | L30E | -0.196 ± 0.17
126 | L30F | -0.609 ± 0.19
127 | L30G | -0.375 ± 0.12
128 | L30H | -0.194 ± 0.19
129 | L30I | -0.479 ± 0.22
130 | L30K | -0.312 ± 0.24
131 | L30M | -0.299 ± 0.16
132 | L30N | -0.264 ± 0.16
133 | L30P | -0.139 ± 0.17
134 | L30Q | -0.432 ± 0.27
135 | L30R | -0.02 ± 0.098
136 | L30S | -0.145 ± 0.13
137 | L30T | -0.292 ± 0.19
138 | L30W | -0.271 ± 0.12
139 | D31A | -0.257 ± 0.12
140 | D31C | -0.709 ± 0.2
141 | D31E | -0.202 ± 0.14
142 | D31F | -0.558 ± 0.16
143 | D31G | -0.004 ± 0.1
144 | D31H | -0.024 ± 0.15

Row | Variant | abundance fitness
145 | D31I | -0.501 ± 0.18
146 | D31K | -0.528 ± 0.2
147 | D31M | -0.365 ± 0.17
148 | D31N | 0.175 ± 0.12
149 | D31P | -0.175 ± 0.16
150 | D31Q | 0.04 ± 0.21
151 | D31R | -0.324 ± 0.12
152 | D31S | -0.317 ± 0.11
153 | D31T | -0.308 ± 0.12
154 | D31V | -0.254 ± 0.093
155 | D31W | -0.921 ± 0.32
156 | C32A | -0.545 ± 0.14
157 | C32D | -0.683 ± 0.18
158 | C32E | -0.871 ± 0.24
159 | C32F | -0.959 ± 0.18
160 | C32G | -0.652 ± 0.11
161 | C32H | -0.501 ± 0.22
162 | C32I | -0.911 ± 0.2
163 | C32K | -0.795 ± 0.17
164 | C32L | -0.925 ± 0.12
165 | C32M | -0.952 ± 0.16
166 | C32N | -0.528 ± 0.25
167 | C32P | -0.454 ± 0.16
